Measurements published in patent US12281340B2, “Method of producing N-acyl-amino group-containing compound” (AJINOMOTO CO., INC., priority 2018, dated 2025).

How the values were obtained:
Type in all cases: biochemical
[1] = Synthesis of N-caprinoyl-amino acid derivative, N-caprinoyl-D-amino acid and N-caprinoyl-peptide using purified acylamino acid synthetase, UPLC-MS detection; design: key: +: Detected; −: Not detected; conditions: +ATP
Outline: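 Purified enzyme (50 μg/mL) was incubated with 5 mM sodium caprate, 5 mM amino acid derivative, D-amino acid or peptide, 10 mM ATP, 10 mM MgCl2 and 1 mM DTT in 50 mM Tris-HCl, pH 8.0, for 24 h at 25 °C. After acidic methanol stop, UPLC-MS looked for the mass of the N-caprinoyl product.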

[2] = Synthesis of N-lauroylamino acid / N-lauroylamino acid derivative using purified acylamino acid synthetase, UPLC-MS detection; design: key: +: Detected; −: Not detected; conditions: +ATP
Method: 0.2 mL of a reaction solution containing 50 mM Tris-HCl, 5 mM amino acid or D-amino acid derivative, 5 mM sodium laurate, 10 mM ATP, 10 mM MgCl2, 1 mM DTT, 200 μg/mL of the purified enzyme, pH 8.0 was incubated at 25° C. for 24 hours. After completion of the reaction, 0.8 mL of the reaction stop solution (1% (v/v) phosphoric acid, 75% (v/v) methanol) was added, and the mixture was filtrated through the filter followed by being subjected to the UPLC-MS analysis to detect a signal of a molecular weight corresponding to an N-lauroyl-amino acid or an N-lauroyl-amino acid derivative. The condition for the UPLC-MS analysis is as described in Example 2.
As a result of the UPLC-MS analysis, the signal of the molecular weight corresponding to the N-lauroyl-amino acid or the N-lauroyl-amino acid derivative was confirmed in the reaction solution containing the enzyme in combination with the amino acid or the amino acid derivative shown in Table 5 below.

[3] = Quantification of produced N-acylamino acid (UV 210 nm) using purified acylamino acid synthetase; conditions: 5 mM L-Asp, 5 mM sodium fatty acid, 200 μg/mL enzyme, 25° C., 24 hours
Method: 0.1 mL of a reaction solution containing 50 mM Tris-HCl, 5 mM amino acid, 5 mM sodium fatty acid, 10 mM ATP, 10 mM MgCl2, 1 mM DTT, 200 μg/mL of the purified enzyme, pH 8.0 was incubated at 25° C. for 24 hours. As amino acids, L-Asp was used in AtGH3-6, OsGH3-8, AtGH3-5, AtGH3-12, and Gly or L-Ala was used in CfHP. After completion of the reaction, 0.4 mL of the reaction stop solution (1% (v/v) phosphoric acid, 75% (v/v) methanol) was added, and the mixture was filtrated through the filter followed by being subjected to the UPLC-MS analysis to quantify the produced N-acylamino acid by detection at UV 210 nm. The condition for the UPLC-MS analysis is as descried in Example 2. As a result of the analysis, 3.9 mM of Nα-capryloyl-L-aspartic acid, 4.5 mM of Nα-caprinoyl-L-aspartic acid and 2.2 mM of Nα-lauroyl-L-aspartic acid were detected when AtGH3-6 was used; 4.3 mM of Nα-capryloyl-L-aspartic acid, 4.6 mM of Nα-caprinoyl-L-aspartic acid and 3.5 mM of Nα-lauroyl-L-aspartic acid were detected when OsGH3-8 was used; 4.1 mM of Nα-capryloyl-L-aspartic acid, 4.6 mM of Nα-caprinoyl-L-aspartic acid and 2.5 mM of Nα-lauroyl-L-aspartic acid were detected when AtGH3-5 was used; 1.6 mM of Nα-capryloyl-L-aspartic acid, 0.6 mM of Nα-caprinoyl-L-aspartic acid and 0.2 mM of Nα-lauroyl-L-aspartic acid were detected when AtGH3-12 was used; 4.5 mM of Nα-capryloylglycine, 4.6 mM of Nα-caprinoylglycine, 0.1 mM of Nα-lauroylglycine, 3.1 mM of Nα-capryloyl-L-alanine, 3.6 mM of Nα-caprinoyl-L-alanine and 0.4 mM of Nα-lauroyl-L-alanine were detected when CfHP was used.

[4] = Synthesis of N-lauroylamino acid / N-lauroylamino acid derivative using purified acylamino acid synthetase, UPLC-MS detection; design: key: +: Detected; −: Not detected; conditions: +ATP; remark: listed apart in the source
[5] = substrates Carnosine and sodium caprate
[6] = substrates D-Ala and sodium caprate
[7] = substrates D-Asp and sodium caprate
[8] = substrates D-Cys and sodium caprate
[9] = substrates D-Glu and sodium caprate
[10] = substrates D-Ile and sodium caprate
[11] = substrates D-Lys and sodium caprate
[12] = substrates L-Asp-L-Phe and sodium caprate
[13] = substrates L-Gly-L-Gly and sodium caprate
[14] = substrates Sarcosine and sodium caprate
[15] = substrates Taurine and sodium caprate
[16] = substrates Gly and sodium laurate
[17] = substrates L-Ala and sodium laurate
[18] = substrates L-Arg and sodium laurate
[19] = substrates L-Asp and sodium laurate
[20] = substrates L-Glu and sodium laurate
[21] = substrates L-Lys and sodium laurate
[22] = substrates L-Thr and sodium laurate
[23] = substrates β-Ala and sodium laurate
[24] = substrates Sarcosine and sodium laurate
[25] = substrates Taurine and sodium laurate

Row | signal of molecular weight corresponding to N-caprinoyl compound [1, 5] | signal of molecular weight corresponding to N-caprinoyl compound [1, 6] | signal of molecular weight corresponding to N-caprinoyl compound [1, 7] | signal of molecular weight corresponding to N-caprinoyl compound [1, 8] | signal of molecular weight corresponding to N-caprinoyl compound [1, 9] | signal of molecular weight corresponding to N-caprinoyl compound [1, 10] | signal of molecular weight corresponding to N-caprinoyl compound [1, 11] | signal of molecular weight corresponding to N-caprinoyl compound [1, 12] | signal of molecular weight corresponding to N-caprinoyl compound [1, 13] | signal of molecular weight corresponding to N-caprinoyl compound [1, 14] | signal of molecular weight corresponding to N-caprinoyl compound [1, 15] | signal of molecular weight corresponding to N-lauroyl amino acid [2, 16] | signal of molecular weight corresponding to N-lauroyl amino acid [2, 17] | signal of molecular weight corresponding to N-lauroyl amino acid [2, 18] | signal of molecular weight corresponding to N-lauroyl amino acid [2, 19] | signal of molecular weight corresponding to N-lauroyl amino acid [2, 20] | signal of molecular weight corresponding to N-lauroyl amino acid [2, 21] | signal of molecular weight corresponding to N-lauroyl amino acid [2, 22] | signal of molecular weight corresponding to N-lauroyl amino acid [2, 23] | Nα-caprinoyl-L-aspartic acid detected [3] | Molecule | also measured
1 | + | + | + | + | + | + | + | + | + | + | + | + | + | + | + | + | + | + | + | 4.6 mM | AtGH3-5: indole-3-acetic acid-amido synthetase GH3.5 from Arabidopsis thaliana, His-tagged (protein, listed as Arabidopsis thaliana, His-tag, indole-3-acetic acid-amido synthetase GH3.5 from Arabidopsis thaliana, His-tagged) MPEAPKKESLEVFDLTLDQKNKQKLQLIEELTSNADQVQRQVLEEILTRNADVEYLRRHDLNGRTDRETFKNIMPVITYEDIEPEINRIANGDKSPILSSKPISEFLTSSGTSGGERKLMPTIEEELDRRSLLYSLLMPVMSQFVPGLENGKGMYFLFIKSESKTPGGLPARPVLTSYYKSSHFKERPYDPYTNYTSPNETILCSDSYQSMYSQMLCGLCQHQEVLRVGAVFASGFIRAIKFLEKHWIELVRDIRTGTLSSLITDPSVREAVAKILKPSPKLADFVEFECKKSSWQGIITRLWPNTKYVDVIVTGTMSQYIPTLDYYSNGLPLVCTMYASSECYFGVNLRPLCKPSEVSYTLIPSMAYFEFLPVHRNNGVTNSINLPKALTEKEQQELVDLVDVKLGQEYELVVTTYAGLCRYRVGDLLRVTGFKNKAPQFSFICRKNVVLSIDSDKTDEVELQNAVKNAVTHLVPFDASLSEYTSYADTSSIPGHYVLFWELCLDGNTPIPPSVFEDCCLAVEESFNTVYRQGRVSDKSIGPLEIKIVEPGTFDKLMDYAISLGASINQYKTPRCVKFAPIIELLNSRVVDSYFSPKCPKWVPGHKQWGSN | Nα-capryloyl-L-aspartic acid detected [3]: 4.1 mM; Nα-lauroyl-L-aspartic acid detected [3]: 2.5 mM; signal of molecular weight corresponding to N-lauroyl amino acid derivative [4, 24]: +; signal of molecular weight corresponding to N-lauroyl amino acid derivative [4, 25]: +
2 | + | + | + | − | + | + | + | + | + | + | + | − | − | − | + | − | + | + | − | 0.6 mM | AtGH3-12: 4-substituted benzoates-glutamate ligase GH3.12 from Arabidopsis thaliana, His-tagged (protein, listed as Arabidopsis thaliana, His-tag, 4-substituted benzoates-glutamate ligase GH3.12 from Arabidopsis thaliana, His-tagged) MKPIFDINETFEKQLKDLTSNVKSIQDNLLEEIITPNTKTEYLQRFLIDRFDKELFKKNVPIVSYEDIKPYLDRVVNGESSDVISARTITGFLLSSGTSGGAQKMMPWNNKYLDNLTFIYDLRMQVITKHVKGVEEGKGMMFLFTKQESMTPSGLPARVATSSYFKSDYFKNRPSNWYYSYTSPDEVILCPNNTESLYCHLLCGLVQRDEVVRTGSIFASVMVRAIEVLKNSWEELCSNIRSGHLSNWVTDLGCQNSVSLVLGGPRPELADTIEEICNQNSWKGIVKRLWPNTKYIETVVTGSMGQYVPMLNYYCNDLPLVSTTYGSSETTFGINLDPLCKPEDVSYTFMPNMSYFEFIPMDGGDKNDVVDLEDVKLGCTYEPVVTNFAGLYRMRVGDIVLVTGFYNNAPQFKFVRRENVVLSIDSDKTNEEDLFKAVSQAKLVLESSGLDLKDFTSYADTSTFPGHYVVYLEVDTKEGEEKETAQFELDEEALSTCCLVMEESLDNVYKRCRFKDGSIGPLEIRVVRQGTFDSLMDFFISQGASTGQYKTPRCIKSGKALQVLETCVVAKFFSI | Nα-capryloyl-L-aspartic acid detected [3]: 1.6 mM; Nα-lauroyl-L-aspartic acid detected [3]: 0.2 mM; signal of molecular weight corresponding to N-lauroyl amino acid derivative [4, 24]: −; signal of molecular weight corresponding to N-lauroyl amino acid derivative [4, 25]: +
